Measured values published in patent US20040161419A1, “Placental stem cells and uses thereof” (priority 2002, published 2004).

Experiments:
[1] = system: placental stem cells
Description: The cells were cultured for either 7-10 days or until the cultures grew to confluence. The cells were trypsinized and reseeded in 6 well plates. The cells were subjected to different culture conditions, having varying growth factors supplementing the DMEM or MEM based medium. […] Placental stem cells were cultured for an additional 14 days. At the end of 14 days, the cells were evaluated for the expression of human albumin, CYP3A4, A1AT, or C/EBP-alpha.

[2] = system: placental stem cells; assay: Culture in the presence or absence of EGF (growth curve); format: cell-based, human; settings: EGF 10 ng/ml versus absence of EGF
Description: A human placenta was obtained from an uncomplicated elective caesarean section. The whole placenta was placed in a sterilized 1000 ml cup and washed with Hank's Balanced Salt Solution (HBSS) containing penicillin G (100 U/ml), streptomycin (100 μg/ml), and amphotericin B (0.25 μg/ml). The umbilical cord was cut and the whole placenta was cut in half at the point of attachment of the umbilical cord. The amnion layer was peeled from the underlying chorion layer of the placenta by gentle stripping with a sterile scalpel, starting from the cut edge (middle of the placental body) and working outward. The amnion was washed with HBSS (without antibiotics) and rinsed with 0.05% Trypsin-EDTA. 0.05% Trypsin-EDTA was added to approximately twice the volume of the tissue in a 50 cc Falcon tube and incubated at 37° C. for 20 min on shaker in a 5% CO2 incubator. The tissue is transferred to a new tube with 0.05% Trypsin-EDTA. Media was added to remaining supernatant in the tube to stop trypsinization and centrifuged at 800 rpm for 10 min at 4° C. The pellet was resuspended in DMEM, 10% FBS, 1 mM Sodium Pyruvate, EGF (10 ng/ml), penicillin G (100 U/ml), streptomycin (100 μg/ml), and amphotericin B (0.25 μg/ml). The trysinization step was repeated up to a total of 3 times. The cells released by each trypsinization were plated separately or mixed in one tube after passing through a 100 μm cell strainer. […]

| Molecule | liver specific gene expression (albumin, CYP3A4, A1AT, C/EBP-alpha) [1] | proliferation of placental stem cells [2] | proliferation of placental stem cells ([2]; listed as Epidermal Growth Factor (EGF)) |
| --- | --- | --- | --- |
| FGF 4: fibroblast growth factor 4, media supplement (protein, UniProt P08620 31-206, looked up) Fibroblast growth factor 4: APTAPNGTLEAELERRWESLVALSLARLPVAAQPKEAAVQSGAGDYLLGIKRLRRLYCNVGIGFHLQALPDGRIGGAHADTRDSLLELSPVERGVVSIFGVASRFFVAMSSKGKLYGSPFFTDECTFKEILLPNNYNAYESYKYPGMFIALSKNGKTKKGNRVSPTMKVTHFLPRL | did not enhance liver specific gene expression | – | – |
| FGF 7: fibroblast growth factor 7, media supplement (protein, UniProt P21781 32-194, looked up) Fibroblast growth factor 7: CNDMTPEQMATNVNCSSPERHTRSYDYMEGGDIRVRRLFCRTQWYLRIDKRGKVKGTQEMKNNYNIMEIRTVAVGIVAIKGVESEFYLAMNKEGKLYAKKECNEDCNFKELILENHYNTYASAKWTHNGGEMFVALNQKGIPVRGKKTKKEQKTAHFLPMAIT | did not enhance liver specific gene expression | – | – |
| EGF: epidermal growth factor, media supplement (protein, UniProt P01133 23-1207, looked up, Pro-epidermal growth factor, epidermal growth factor, media supplement) Pro-epidermal growth factor: PQHWSCPEGTLAGNGNSTCVGPAPFLIFSHGNSIFRIDTEGTNYEQLVVDAGVSVIMDFHYNEKRIYWVDLERQLLQRVFLNGSRQERVCNIEKNVSGMAINWINEEVIWSNQQEGIITVTDMKGNNSHILLSALKYPANVAVDPVERFIFWSSEVAGSLYRADLDGVGVKALLETSEKITAVSLDVLDKRLFWIQYNREGSNSLICSCDYDGGSVHISKHPTQHNLFAMSLFGDRIFYSTWKMKTIWIANKHTGKDMVRINLHSSFVPLGELKVVHPLAQPKAEDDTWEPEQKLCKLRKGNCSSTVCGQDLQSHLCMCAEGYALSRDRKYCEDVNECAFWNHGCTLGCKNTPGSYYCTCPVGFVLLPDGKRCHQLVSCPRNVSECSHDCVLTSEGPLCFCPEGSVLERDGKTCSGCSSPDNGGCSQLCVPLSPVSWECDCFPGYDLQLDEKSCAASGPQPFLLFANSQDIRHMHFDGTDYGTLLSQQMGMVYALDHDPVENKIYFAHTALKWIERANMDGSQRERLIEEGVDVPEGLAVDWIGRRFYWTDRGKSLIGRSDLNGKRSKIITKENISQPRGIAVHPMAKRLFWTDTGINPRIESSSLQGLGRLVIASSDLIWPSGITIDFLTDKLYWCDAKQSVIEMANLDGSKRRRLTQNDVGHPFAVAVFEDYVWFSDWAMPSVMRVNKRTGKDRVRLQGSMLKPSSLVVVHPLAKPGADPCLYQNGGCEHICKKRLGTAWCSCREGFMKASDGKTCLALDGHQLLAGGEVDLKNQVTPLDILSKTRVSEDNITESQHMLVAEIMVSDQDDCAPVGCSMYARCISEGEDATCQCLKGFAGDGKLCSDIDECEMGVPVCPPASSKCINTEGGYVCRCSEGYQGDGIHCLDIDECQLGEHSCGENASCTNTEGGYTCMCAGRLSEPGLICPDSTPPPHLREDDHHYSVRNSDSECPLSHDGYCLHDGVCMYIEALDKYACNCVVGYIGERCQYRDLKWWELRHAGHGQQQKVIVVAVCVVVLVMLLLLSLWGAHYYRTQKLLSKNPKNPYEESSRDVRSRRPADTEDGMSSCPQPWFVVIKEHQDLKNGGQPVAGEDGQAADGSMQPTSWRQEPQLCGMGTEQGCWIPVSSDKGSCPQVMERSFHMPSYGTQTLEGGVEKPHSLLSANPLWQQRALDPPHQMELTQ | enhance liver specific gene expression | proliferate robustly | grow significantly better |
